Experimental data reported in US20240209100A1 (DIAGONAL THERAPEUTICS, published 2024).

T1: IL-18 receptor (IL-18Rα/IL-18Rβ) overexpressed on HEK-Blue IL-18 cells (Homo sapiens (Human), UniProt Q13478 19-541; O95256 20-599)
T1 sequence 1: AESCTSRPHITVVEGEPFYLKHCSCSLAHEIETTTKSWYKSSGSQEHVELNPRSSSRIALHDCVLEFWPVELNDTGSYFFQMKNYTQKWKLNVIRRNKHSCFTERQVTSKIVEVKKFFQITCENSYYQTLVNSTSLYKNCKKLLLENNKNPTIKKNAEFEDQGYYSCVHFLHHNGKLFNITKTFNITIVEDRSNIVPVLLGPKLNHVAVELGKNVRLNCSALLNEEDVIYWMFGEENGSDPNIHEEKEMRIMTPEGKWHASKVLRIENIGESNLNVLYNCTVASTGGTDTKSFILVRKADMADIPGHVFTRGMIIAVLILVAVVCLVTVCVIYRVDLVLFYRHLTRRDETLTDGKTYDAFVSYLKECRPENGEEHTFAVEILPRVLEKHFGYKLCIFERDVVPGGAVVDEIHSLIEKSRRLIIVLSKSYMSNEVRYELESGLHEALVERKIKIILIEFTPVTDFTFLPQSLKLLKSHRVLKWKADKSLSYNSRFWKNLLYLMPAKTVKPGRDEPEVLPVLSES
T1 sequence 2: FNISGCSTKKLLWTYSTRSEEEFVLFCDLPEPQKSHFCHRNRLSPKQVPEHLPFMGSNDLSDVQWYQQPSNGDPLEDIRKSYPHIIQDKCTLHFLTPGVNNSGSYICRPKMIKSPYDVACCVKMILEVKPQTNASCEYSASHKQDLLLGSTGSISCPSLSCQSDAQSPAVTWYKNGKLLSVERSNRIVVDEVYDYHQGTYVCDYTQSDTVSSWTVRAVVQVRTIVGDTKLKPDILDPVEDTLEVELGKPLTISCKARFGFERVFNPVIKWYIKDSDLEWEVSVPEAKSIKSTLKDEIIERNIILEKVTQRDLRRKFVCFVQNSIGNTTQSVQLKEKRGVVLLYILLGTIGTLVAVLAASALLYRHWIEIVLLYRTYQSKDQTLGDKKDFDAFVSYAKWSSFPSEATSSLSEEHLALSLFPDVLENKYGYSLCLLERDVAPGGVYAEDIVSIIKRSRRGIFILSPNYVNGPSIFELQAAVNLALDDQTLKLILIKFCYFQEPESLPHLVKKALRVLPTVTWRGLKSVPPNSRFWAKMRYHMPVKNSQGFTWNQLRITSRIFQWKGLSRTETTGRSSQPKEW

B1: DGL211 (bispecific antibody)
heavy 1: QVQLVESGGGLVQAGGSLRLSCAASGRTFSKHAMGWFRQAPGKEREFVAAIDWSGGSTYYADSVKGRFTISRDNAKNTVYLQMDSLKPEDTAVYYCAADSYTDYAQLWLPELESEYDYWGQGTLVTVSSEKSYGPPCPPCPAPEAAGAPSVFLFPPKPKDTLMISRTPEVTCVVVDVSHEDPEVKFNWYVDGVEVHNAKTKPREEQYNSTYRVVSVLTVLHQDWLNGKEYKCKVSNKALPAPIEKTISKAKGQPREPQVCTLPPSRDELTKNQVSLSCAVKGFYPSDIAVEWESNGQPENNYKTTPPVLDSDGSFFLVSKLTVDKSRWQQGNVFSCSVMHEALHNHYTQKSLSLSPGWSHPQFEK
heavy 2: QLQLVESGGGLVQAGGSLRLSCAASRSITFSHNVMGWYRQAPGKQRELVASIGSGGSTNYVDSVKGRATISRDNAKKTVYLQMNSLKPEDTAVYYCGVVVGVYRGSLGQGTLVTVSSEKSYGPPCPPCPAPEAAGAPSVFLFPPKPKDTLMISRTPEVTCVVVDVSHEDPEVKFNWYVDGVEVHNAKTKPREEQYNSTYRVVSVLTVLHQDWLNGKEYKCKVSNKALPAPIEKTISKAKGQPREPQVYTLPPCRDELTKNQVSLWCLVKGFYPSDIAVEWESNGQPENNYKTTPPVLDSDGSFFLYSKLTVDKSRWQQGNVFSCSVMHEALHNHYTQKSLSLSPGEPEA
B2: DGL212 (bispecific antibody)
heavy 1: QVQLVESGGGLVQAGGSLRLSCAASGRTFSKHAMGWFRQAPGKEREFVAAIDWSGGSTYYADSVKGRFTISRDNAKNTVYLQMDSLKPEDTAVYYCAADSYTDYAQLWLPELESEYDYWGQGTLVTVSSDKTHTCPPCPAPEAAGAPSVFLFPPKPKDTLMISRTPEVTCVVVDVSHEDPEVKFNWYVDGVEVHNAKTKPREEQYNSTYRVVSVLTVLHQDWLNGKEYKCKVSNKALPAPIEKTISKAKGQPREPQVCTLPPSRDELTKNQVSLSCAVKGFYPSDIAVEWESNGQPENNYKTTPPVLDSDGSFFLVSKLTVDKSRWQQGNVFSCSVMHEALHNHYTQKSLSLSPGWSHPQFEK
heavy 2: not shown
B3: DGL213 (bispecific antibody)
heavy 1: B2 heavy 1
heavy 2: QLQLVESGGGLVQAGGSLRLSCAASRSITFSHNVMGWYRQAPGKQRELVASIGSGGSTNYVDSVKGRATISRDNAKKTVYLQMNSLKPEDTAVYYCGVVVGVYRGSLGQGTLVTVSSCPPCPAPEAAGAPSVFLFPPKPKDTLMISRTPEVTCVVVDVSHEDPEVKFNWYVDGVEVHNAKTKPREEQYNSTYRVVSVLTVLHQDWLNGKEYKCKVSNKALPAPIEKTISKAKGQPREPQVYTLPPCRDELTKNQVSLWCLVKGFYPSDIAVEWESNGQPENNYKTTPPVLDSDGSFFLYSKLTVDKSRWQQGNVFSCSVMHEALHNHYTQKSLSLSPGEPEA
B4: DGL214 (bispecific antibody)
heavy 1: B2 heavy 1
heavy 2: not shown
B5: DGL215 (bispecific antibody)
heavy 1: B2 heavy 1
heavy 2: QLQLVESGGGLVQAGGSLRLSCAASRSITFSHNVMGWYRQAPGKQRELVASIGSGGSTNYVDSVKGRATISRDNAKKTVYLQMNSLKPEDTAVYYCGVVVGVYRGSLGQGTLVTVSSPLAPCPPCPAPEAAGAPSVFLFPPKPKDTLMISRTPEVTCVVVDVSHEDPEVKFNWYVDGVEVHNAKTKPREEQYNSTYRVVSVLTVLHQDWLNGKEYKCKVSNKALPAPIEKTISKAKGQPREPQVYTLPPCRDELTKNQVSLWCLVKGFYPSDIAVEWESNGQPENNYKTTPPVLDSDGSFFLYSKLTVDKSRWQQGNVFSCSVMHEALHNHYTQKSLSLSPGEPEA
B6: DGL216 (bispecific antibody)
heavy 1: B2 heavy 1
heavy 2: QLQLVESGGGLVQAGGSLRLSCAASRSITFSHNVMGWYRQAPGKQRELVASIGSGGSTNYVDSVKGRATISRDNAKKTVYLQMNSLKPEDTAVYYCGVVVGVYRGSLGQGTLVTVSSGGGGSGGGGSGGGGSGGGGSCPPCPAPEAAGAPSVFLFPPKPKDTLMISRTPEVTCVVVDVSHEDPEVKFNWYVDGVEVHNAKTKPREEQYNSTYRVVSVLTVLHQDWLNGKEYKCKVSNKALPAPIEKTISKAKGQPREPQVYTLPPCRDELTKNQVSLWCLVKGFYPSDIAVEWESNGQPENNYKTTPPVLDSDGSFFLYSKLTVDKSRWQQGNVFSCSVMHEALHNHYTQKSLSLSPGEPEA
B7: DGL217 (bispecific antibody)
heavy 1: B2 heavy 1
heavy 2: B1 heavy 2
B8: DGL218 (bispecific antibody)
heavy 1: QVQLVESGGGLVQAGGSLRLSCAASGRTFSKHAMGWFRQAPGKEREFVAAIDWSGGSTYYADSVKGRFTISRDNAKNTVYLQMDSLKPEDTAVYYCAADSYTDYAQLWLPELESEYDYWGQGTLVTVSSCPPCPAPEAAGAPSVFLFPPKPKDTLMISRTPEVTCVVVDVSHEDPEVKFNWYVDGVEVHNAKTKPREEQYNSTYRVVSVLTVLHQDWLNGKEYKCKVSNKALPAPIEKTISKAKGQPREPQVCTLPPSRDELTKNQVSLSCAVKGFYPSDIAVEWESNGQPENNYKTTPPVLDSDGSFFLVSKLTVDKSRWQQGNVFSCSVMHEALHNHYTQKSLSLSPGWSHPQFEK
heavy 2: not shown
B9: DGL219 (bispecific antibody)
heavy 1: QVQLVESGGGLVQAGGSLRLSCAASGRTFSKHAMGWFRQAPGKEREFVAAIDWSGGSTYYADSVKGRFTISRDNAKNTVYLQMDSLKPEDTAVYYCAADSYTDYAQLWLPELESEYDYWGQGTLVTVSSPLAPDKTHTCPPCPAPEAAGAPSVFLFPPKPKDTLMISRTPEVTCVVVDVSHEDPEVKFNWYVDGVEVHNAKTKPREEQYNSTYRVVSVLTVLHQDWLNGKEYKCKVSNKALPAPIEKTISKAKGQPREPQVCTLPPSRDELTKNQVSLSCAVKGFYPSDIAVEWESNGQPENNYKTTPPVLDSDGSFFLVSKLTVDKSRWQQGNVFSCSVMHEALHNHYTQKSLSLSPGWSHPQFEK
heavy 2: not shown
B10: DGL220 (bispecific antibody)
heavy 1: QVQLVESGGGLVQAGGSLRLSCAASGRTFSKHAMGWFRQAPGKEREFVAAIDWSGGSTYYADSVKGRFTISRDNAKNTVYLQMDSLKPEDTAVYYCAADSYTDYAQLWLPELESEYDYWGQGTLVTVSSPLAPCPPCPAPEAAGAPSVFLFPPKPKDTLMISRTPEVTCVVVDVSHEDPEVKFNWYVDGVEVHNAKTKPREEQYNSTYRVVSVLTVLHQDWLNGKEYKCKVSNKALPAPIEKTISKAKGQPREPQVCTLPPSRDELTKNQVSLSCAVKGFYPSDIAVEWESNGQPENNYKTTPPVLDSDGSFFLVSKLTVDKSRWQQGNVFSCSVMHEALHNHYTQKSLSLSPGWSHPQFEK
heavy 2: not shown
B11: DGL221 (bispecific antibody)
heavy 1: QVQLVESGGGLVQAGGSLRLSCAASGRTFSKHAMGWFRQAPGKEREFVAAIDWSGGSTYYADSVKGRFTISRDNAKNTVYLQMDSLKPEDTAVYYCAADSYTDYAQLWLPELESEYDYWGQGTLVTVSSGGGGSGGGGSGGGGSGGGGSCPPCPAPEAAGAPSVFLFPPKPKDTLMISRTPEVTCVVVDVSHEDPEVKFNWYVDGVEVHNAKTKPREEQYNSTYRVVSVLTVLHQDWLNGKEYKCKVSNKALPAPIEKTISKAKGQPREPQVCTLPPSRDELTKNQVSLSCAVKGFYPSDIAVEWESNGQPENNYKTTPPVLDSDGSFFLVSKLTVDKSRWQQGNVFSCSVMHEALHNHYTQKSLSLSPGWSHPQFEK
heavy 2: not shown

Biological target: T1, IL-18 receptor (IL-18Rα/IL-18Rβ) …
Assay: cell-based or functional assay

| Binder | HEK-Blue IL-18: Abs 405 at 100 nM | HEK-Blue IL-18: Fold over Background |
| --- | --- | --- |
| B1 | 1.5 Abs | 6.7 fold |
| B2 | 1.4 Abs | 6.2 fold |
| B3 | 1.5 Abs | 6.4 fold |
| B4 | 1.1 Abs | 4.7 fold |
| B5 | 1.4 Abs | 6.1 fold |
| B6 | 0.8 Abs | 3.4 fold |
| B7 | 1.3 Abs | 5.6 fold |
| B8 | 1.3 Abs | 5.5 fold |
| B9 | 1 Abs | 4.4 fold |
| B10 | 1.5 Abs | 6.6 fold |
| B11 | 0.6 Abs | 2.4 fold |
